The values that follow come from the supplement of paper PMC5998384.

Series [1] relates to HeLa Kyoto. Put plainly: solubility change mitosis vs G1/S (difference of NP-40 vs SDS log2 ratios) (log2 ratio difference); higher = more soluble in mitosis.
Series [2] concerns HeLa Kyoto. Put plainly: solubility in G1/S (NP-40 vs SDS abundance) (log2 ratio); higher = more soluble. The following applies: cell cycle stage: G1/S.
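For solubility change mitosis vs G1/S (difference of NP-40 vs SDS log2 ratios) in this document: synchronized HeLa Kyoto cells (double thymidine block for G1/S, nocodazole release for mitosis), protein amounts in NP-40 versus SDS lysates quantified by mass spectrometry, three biological replicates.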
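For solubility in G1/S (NP-40 vs SDS abundance) in this document: HeLa Kyoto cells arrested at G1/S by double thymidine block, proteins quantified by TMT10plex mass spectrometry in mild NP-40 versus SDS extracts, three biological replicates.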

On to “MEEGNNNEEVIHLNNFHCHRGQEWINLRDGPITISDSSDEERIPMLVTPAPQQHEEEDLDDDVILTEDDSEDDYGEFLDLGPPGISEFTKPSGQTEREPKPGPSHNQAANDIVNPRSEQKVIILEEGSLLYTESDPLETQNQSSEDSETELLSNLGESAALADDQAIEEDCWLDHPYFQSLNQQPREITNQVVPQERQPEAELGRLLFQHEFPGPAFPRPEPQQGGISGPSSPQPAHPLGEFEDQQLASDDEEPGPAFPMQESQEPNLENIWGQEAAEVDQELVELLVKETEARFPDVANGFIEEIIHFKNYYDLNVLCNFLLENPDYPKREDRIIINPSSSLLASQDETKLPKIDFFDYSKLTPLDQRCFIQAADLLMADFKVLSSQDIKWALHELKGHYAITRKALSDAIKKWQELSPETSGKRKKRKQMNQYSYIDFKFEQGDIKIEKRMFFLENKRRHCRSYDRRALLPAVQQEQEFYEQKIKEMAEHEDFLLALQMNEEQYQKDGQLIECRCCYGEFPFEELTQCADAHLFCKECLIRYAQEAVFGSGKLELSCMEGSCTCSFPTSELEKVLPQTILYKYYERKAEEEVAAAYADELVRCPSCSFPALLDSDVKRFSCPNPHCRKETCRKCQGLWKEHNGLTCEELAEKDDIKYRTSIEEKMTAARIRKCHKCGTGLIKSEGCNRMSCRCGAQMCYLCRVSINGYDHFCQHPRSPGAPCQECSRCSLWTDPTEDDEKLIEEIQKEAEEEQKRKNGENTFKRIGPPLEKPVEKVQRVEALPRPVPQNLPQPQMPPYAFAHPPFPLPPVRPVFNNFPLNMGPIPAPYVPPLPNVRVNYDFGPIHMPLEHNLPMHFGPQPRHRF [RNF216]”, for which the “solubility change mitosis (log2)” value in the series on HeLa Kyoto [1] was -0.122. In addition, the “solubility in G1/S (log2)” value in the series on HeLa Kyoto [2] was -0.195.
The matching figures for “MDRGQPSLEPAAAAPRASGRCVIAPVRAVLRLRRRVCVLRKRRLLQPGGGPDVGTGAPRPGCSPRAPRADLDQPKFFTFDSPAELPSRTPRKKRRRSRLVLYPETSRKYRPRVEHRSRAQRCLLLLVAIVGFQVLNAIENLDDNAQRYDLDGLEKALQRAVFGQPAAVSRIVALMRDYLATHVHSRPLLLALHGPSGVGKSHVGRLLARHFRSVLEDSALVLQYHARHHCPEARAAQDCREELARRVADVVARAEAEEKTPLLVLDDVELMPRPLLDELHGFLQPQRSHHFHNAIYVLLSGAGGAEVTRFVLQNASRALPLRPDGFRSAEAAAAQAEEDLRASLLAVLSREHPLWQAAAIVPFLLLDKRDVVSCFRDEMAGEGFFPDQARAENLAAQLSFYRVAGREFAVTGCKQVVATVNLL [TOR4A]”: 0.0625 and 0.137.
With “MELENIVANTVLLKAREGGGGNRKGKSKKWRQMLQFPHISQCEELRLSLERDYHSLCERQPIGRLLFREFCATRPELSRCVAFLDGVAEYEVTPDDKRKACGRQLTQNFLSHTGPDLIPEVPRQLVTNCTQRLEQGPCKDLFQELTRLTHEYLSVAPFADYLDSIYFNRFLQWKWLERQPVTKNTFRQYRVLGKGGFGEVCACQVRATGKMYACKKLEKKRIKKRKGEAMALNEKQILEKVNSRFVVSLAYAYETKDALCLVLTLMNGGDLKFHIYHMGQAGFPEARAVFYAAEICCGLEDLHRERIVYRDLKPENILLDDHGHIRISDLGLAVHVPEGQTIKGRVGTVGYMAPEVVKNERYTFSPDWWALGCLLYEMIAGQSPFQQRKKKIKREEVERLVKEVPEEYSERFSPQARSLCSQLLCKDPAERLGCRGGSAREVKEHPLFKKLNFKRLGAGMLEPPFKPDPQAIYCKDVLDIEQFSTVKGVELEPTDQDFYQKFATGSVPIPWQNEMVETECFQELNVFGLDGSVPPDLDWKGQPPAPPKKGLLQRLFSRQDCCGNCSDSEEELPTRL [GRK6]”, the “solubility change mitosis (log2)” value in the series with HeLa Kyoto [1] is -0.198. For the same sequence, in the series with HeLa Kyoto [2], the “solubility in G1/S (log2)” value is -0.123.
Regarding “MAKSNGENGPRAPAAGESLSGTRESLAQGPDAATTDELSSLGSDSEANGFAERRIDKFGFIVGSQGAEGALEEVPLEVLRQRESKWLDMLNNWDKWMAKKHKKIRLRCQKGIPPSLRGRAWQYLSGGKVKLQQNPGKFDELDMSPGDPKWLDVIERDLHRQFPFHEMFVSRGGHGQQDLFRVLKAYTLYRPEEGYCQAQAPIAAVLLMHMPAEQAFWCLVQICEKYLPGYYSEKLEAIQLDGEILFSLLQKVSPVAHKHLSRQKIDPLLYMTEWFMCAFSRTLPWSSVLRVWDMFFCEGVKIIFRVGLVLLKHALGSPEKVKACQGQYETIERLRSLSPKIMQEAFLVQEVVELPVTERQIEREHLIQLRRWQETRGELQCRSPPRLHGAKAILDAEPGPRPALQPSPSIRLPLDAPLPGSKAKPKPPKQAQKEQRKQMKGRGQLEKPPAPNQAMVVAAAGDACPPQHVPPKDSAPKDSAPQDLAPQVSAHHRSQESLTSQESEDTYL [TBC1D10A]”, the “solubility change mitosis (log2)” value in the series on HeLa Kyoto [1] was -0.147. The “solubility in G1/S (log2)” value in the series with HeLa Kyoto [2] worked out at 0.438.
